What was measured:
[1] = target: target antigen of the LL2 antibody (not given); assay: cell surface binding assay, calculated from the ID50 values; cells not named
[2] = target: target antigen of the LL2 antibody (not given); assay: competitive binding assay, F(ab')2; from the ID50 against unmodified control F(ab')2
[3] = target: target antigen of the LL2 antibody (not given); assay: ELISA, calculated from ID50 values; coated reagent not named
[4] = target: target antigen of the LL2 antibody (not given); assay: competitive binding assay, F(ab')2; competitor and antigen not named; design: unit not given beside the values

| Immunoreactivity (%), Cell Binding [1] | Immunoreactivity, % of hLL2 [2] | Immunoreactivity (%), ELISA [3] | ID50 [4] | Substance |
| --- | --- | --- | --- | --- |
| 100% | 100% | 100% | 0.384 | F(ab')2 fragment of hLL2 (antibody) |
| 41.9% |  | 42.2% |  | dextran-doxorubicin-conjugated F(ab')2 fragment of hLL2 (antibody) |

Reference: patent US6090381
